# Source: publication PMC7016264, “Redox requirements for ubiquitin-like urmylation of Ahp1, a 2-Cys peroxiredoxin from yeast” (Redox Biology, 2020)
# B1: His-tagged Ahp1, wild-type (recombinant) (enzyme, S. cerevisiae, UniProt P38013 1-176, looked up)
# chain: MSDLVNKKFPAGDYKFQYIAISQSDADSESCKMPQTVEWSKLISENKKVIITGAPAAFSPTCTVSHIPGYINYLDELVKEKEVDQVIVVTVDNPFANQAWAKSLGVKDTTHIKFASDPGCAFTKSIGFELAVGDGVYWSGRWAMVVENGIVTYAAKETNPGTDVTVSSVESVLAHL
# notes: Ahp1, 2-Cys peroxiredoxin of Saccharomyces cerevisiae; The printed mass of the His-tagged monomer is ~23.3 kDa (dimer 46.7 kDa) against ~19 kDa for untagged Ahp1, so vector-derived residues are probably present; also called wild-type Ahp1; wt Ahp1; source: E. coli, purified (His-tagged)
# Biological target: the molecule itself
# Assay: SEC-MALS; proteins reduced with 50 mM DTT, exchanged into 20 mM HEPES pH 7.5, 100 mM NaCl, 1 mM TCEP, diluted to 125 uM; dimer to monomers
protein,measurement,value
B1,stoichiometry N,2
